The target of the assay is T1, recombinant human Tau monomer, 2N4R isoform (amino acids 2-441) (human, UniProt P10636-8 2-441).
T1 construct: range 2-441; N-terminal His-tag removed with TEV protease; also called monomeric Tau
Put plainly: SPR screen, hIgG captured, Tau monomer analyte. The source says: Antibody 125B11-H3 was humanized onto VH3 and Vκ1 consensus frameworks. The heavy chain graft included murine residues at position 78 (Kabat numbering system). The Vκ1 graft included murine residues in framework positions 43 and 87. The light chain of 113F5-F7 was also humanized onto the Vκ1 framework, with additional murine residues at framework positions 43 and 87. Humanized variant heavy chains (125B11) and light chains (125B11 and 113F5-F7) were co-transfected in multiple combinations and purified in 96-well format as described above. Humanized variants were then screened for affinity for human Tau monomer using the Biacore human IgG capture kit, a Series S CM5 chip and a Biacore T200 instrument. Antibodies were diluted to 2 μg/ml and captured for 15 seconds at 10 μl/min. Association and dissociation of 0, 100 and 500 nM human Tau monomer in HBSP was monitored for 180s and 300s respectively at a flow rate of 40 μl/min. A 1:1 binding model was applied to the results (Table 9).

The term Kd denotes a measure of binding affinity in units of concentration.

T1 sequence (P10636 other isoform, or with tags, fused parts or gaps limits assumed): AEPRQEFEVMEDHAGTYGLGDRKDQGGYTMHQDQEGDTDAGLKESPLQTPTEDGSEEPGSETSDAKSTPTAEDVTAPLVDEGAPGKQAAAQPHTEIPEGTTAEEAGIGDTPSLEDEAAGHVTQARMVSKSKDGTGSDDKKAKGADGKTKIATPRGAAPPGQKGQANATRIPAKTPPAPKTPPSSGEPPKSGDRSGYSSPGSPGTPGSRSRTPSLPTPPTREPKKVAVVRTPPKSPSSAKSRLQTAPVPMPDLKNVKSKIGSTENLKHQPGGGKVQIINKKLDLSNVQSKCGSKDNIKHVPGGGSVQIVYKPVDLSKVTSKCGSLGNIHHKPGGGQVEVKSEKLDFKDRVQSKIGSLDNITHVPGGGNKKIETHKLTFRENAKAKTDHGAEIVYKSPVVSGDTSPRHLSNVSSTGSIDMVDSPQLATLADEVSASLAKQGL

B1: hu125B11 HC1 + 125B11 LC4 (antibody, V domains shown)
VH: EVQLVESGGGLVQPGGSLRLSCAASRFIFSNYWMNWVRQAPGKGLEWVAQIRLKSDNYATHYAESVKGRFTISRDDSKNTVYLQMNSLRAEDTAVYYCTGGTTYWGQGTLVTVSS
VL: DIQMTQSPSSLSASVGDRVTITCKASQNVGTAVAWYQQKPGKAPKLLIYSASIRYTGVPSRFSGSGSGTDFTLTISSLQPEDFATYYCQQFRTYPYTFGQGTKVEIK
As to B1, the Kd amounted to 23 nM.

B2: hu125B11 HC3 + hu113F5-F7 LC2 (antibody, V domains shown)
VH: EVQLVESGGGLVQPGGSLRLSCAASRFIFSNYWMNWVRQAPGKGLEWVAQIRLKSDNYATHYAESVKGRFTISRDDSKNTLYLQMNSLRAEDTAVYYCTGGTTYWGQGTLVTVSS
VL: DIQMTQSPSSLSASVGDRVTITCKASQNVGTAVAWYQQKPGKAPKLLIYSASRRFSGVPSRFSGSGSGTDFTLTISSLQPEDFATYFCQQFSTYPYTFGQGTKVEIK
Turning to B2, the dissociation constant Kd amounted to 55 nM.

B3: hu125B11 HC3 + 125B11 LC2 (antibody, V domains shown)
VH: EVQLVESGGGLVQPGGSLRLSCAASRFIFSNYWMNWVRQAPGKGLEWVAQIRLKSDNYATHYAESVKGRFTISRDDSKNTLYLQMNSLRAEDTAVYYCTGGTTYWGQGTLVTVSS
VL: DIQMTQSPSSLSASVGDRVTITCKASQNVGTAVAWYQQKPGKAPKLLIYSASIRYTGVPSRFSGSGSGTDFTLTISSLQPEDFATYFCQQFRTYPYTFGQGTKVEIK
As for B3, the Kd stood at 19 nM.

B4: hu125B11 HC1 + hu113F5-F7 LC2 (antibody, V domains shown)
VH: EVQLVESGGGLVQPGGSLRLSCAASRFIFSNYWMNWVRQAPGKGLEWVAQIRLKSDNYATHYAESVKGRFTISRDDSKNTVYLQMNSLRAEDTAVYYCTGGTTYWGQGTLVTVSS
VL: DIQMTQSPSSLSASVGDRVTITCKASQNVGTAVAWYQQKPGKAPKLLIYSASRRFSGVPSRFSGSGSGTDFTLTISSLQPEDFATYFCQQFSTYPYTFGQGTKVEIK
Turning to B4, the Kd came out at 67 nM.

B5: hu125B11 HC4 + 125B11 LC1 (antibody, V domains shown)
VH: EVQLVESGGGLVQPGGSLRLSCAASRFIFSNYWMNWVRQAPGKGLEWVAQIRLKSDNYATHYAESVKGRFTISRDNSKNTLYLQMNSLRAEDTAVYYCTGGTTYWGQGTLVTVSS
VL: DIQMTQSPSSLSASVGDRVTITCKASQNVGTAVAWYQQKPGKSPKLLIYSASIRYTGVPSRFSGSGSGTDFTLTISSLQPEDFATYFCQQFRTYPYTFGQGTKVEIK
In the case of B5, the Kd is 15 nM.

B6: hu125B11 HC1 + hu113F5-F7 LC4 (antibody, V domains shown)
VH: EVQLVESGGGLVQPGGSLRLSCAASRFIFSNYWMNWVRQAPGKGLEWVAQIRLKSDNYATHYAESVKGRFTISRDDSKNTVYLQMNSLRAEDTAVYYCTGGTTYWGQGTLVTVSS
VL: DIQMTQSPSSLSASVGDRVTITCKASQNVGTAVAWYQQKPGKAPKLLIYSASRRFSGVPSRFSGSGSGTDFTLTISSLQPEDFATYYCQQFSTYPYTFGQGTKVEIK
Turning to B6, the Kd is 71 nM.

B7: hu125B11 HC2 + hu113F5-F7 LC3 (antibody, V domains shown)
VH: EVQLVESGGGLVQPGGSLRLSCAASRFIFSNYWMNWVRQAPGKGLEWVAQIRLKSDNYATHYAESVKGRFTISRDNSKNTVYLQMNSLRAEDTAVYYCTGGTTYWGQGTLVTVSS
VL: DIQMTQSPSSLSASVGDRVTITCKASQNVGTAVAWYQQKPGKSPKLLIYSASRRFSGVPSRFSGSGSGTDFTLTISSLQPEDFATYYCQQFSTYPYTFGQGTKVEIK
With B7, the Kd amounted to 64 nM.

B8: hu125B11 HC2 + hu113F5-F7 LC4 (antibody, V domains shown)
VH: EVQLVESGGGLVQPGGSLRLSCAASRFIFSNYWMNWVRQAPGKGLEWVAQIRLKSDNYATHYAESVKGRFTISRDNSKNTVYLQMNSLRAEDTAVYYCTGGTTYWGQGTLVTVSS
VL: DIQMTQSPSSLSASVGDRVTITCKASQNVGTAVAWYQQKPGKAPKLLIYSASRRFSGVPSRFSGSGSGTDFTLTISSLQPEDFATYYCQQFSTYPYTFGQGTKVEIK
In the case of B8, the Kd was determined as 77 nM.

B9: hu125B11 HC2 + 125B11 LC2 (antibody, V domains shown)
VH: EVQLVESGGGLVQPGGSLRLSCAASRFIFSNYWMNWVRQAPGKGLEWVAQIRLKSDNYATHYAESVKGRFTISRDNSKNTVYLQMNSLRAEDTAVYYCTGGTTYWGQGTLVTVSS
VL: DIQMTQSPSSLSASVGDRVTITCKASQNVGTAVAWYQQKPGKAPKLLIYSASIRYTGVPSRFSGSGSGTDFTLTISSLQPEDFATYFCQQFRTYPYTFGQGTKVEIK
Turning to B9, the Kd was 20 nM.

B10: hu125B11 HC2 + 125B11 LC4 (antibody, V domains shown)
VH: EVQLVESGGGLVQPGGSLRLSCAASRFIFSNYWMNWVRQAPGKGLEWVAQIRLKSDNYATHYAESVKGRFTISRDNSKNTVYLQMNSLRAEDTAVYYCTGGTTYWGQGTLVTVSS
VL: DIQMTQSPSSLSASVGDRVTITCKASQNVGTAVAWYQQKPGKAPKLLIYSASIRYTGVPSRFSGSGSGTDFTLTISSLQPEDFATYYCQQFRTYPYTFGQGTKVEIK
As to B10, the Kd amounted to 22 nM.

B11: hu125B11 HC3 + hu113F5-F7 LC4 (antibody, V domains shown)
VH: EVQLVESGGGLVQPGGSLRLSCAASRFIFSNYWMNWVRQAPGKGLEWVAQIRLKSDNYATHYAESVKGRFTISRDDSKNTLYLQMNSLRAEDTAVYYCTGGTTYWGQGTLVTVSS
VL: DIQMTQSPSSLSASVGDRVTITCKASQNVGTAVAWYQQKPGKAPKLLIYSASRRFSGVPSRFSGSGSGTDFTLTISSLQPEDFATYYCQQFSTYPYTFGQGTKVEIK
As for B11, the Kd was determined as 65 nM.

B12: hu125B11 HC3 + hu113F5-F7 LC1 (antibody, V domains shown)
VH: EVQLVESGGGLVQPGGSLRLSCAASRFIFSNYWMNWVRQAPGKGLEWVAQIRLKSDNYATHYAESVKGRFTISRDDSKNTLYLQMNSLRAEDTAVYYCTGGTTYWGQGTLVTVSS
VL: DIQMTQSPSSLSASVGDRVTITCKASQNVGTAVAWYQQKPGKSPKLLIYSASRRFSGVPSRFSGSGSGTDFTLTISSLQPEDFATYFCQQFSTYPYTFGQGTKVEIK
As to B12, the Kd was 54 nM.

B13: hu125B11 HC3 + 125B11 LC4 (antibody, V domains shown)
VH: EVQLVESGGGLVQPGGSLRLSCAASRFIFSNYWMNWVRQAPGKGLEWVAQIRLKSDNYATHYAESVKGRFTISRDDSKNTLYLQMNSLRAEDTAVYYCTGGTTYWGQGTLVTVSS
VL: DIQMTQSPSSLSASVGDRVTITCKASQNVGTAVAWYQQKPGKAPKLLIYSASIRYTGVPSRFSGSGSGTDFTLTISSLQPEDFATYYCQQFRTYPYTFGQGTKVEIK
For the molecule B13, the Kd stood at 20 nM.

B14: hu125B11 HC3 + hu113F5-F7 LC3 (antibody, V domains shown)
VH: EVQLVESGGGLVQPGGSLRLSCAASRFIFSNYWMNWVRQAPGKGLEWVAQIRLKSDNYATHYAESVKGRFTISRDDSKNTLYLQMNSLRAEDTAVYYCTGGTTYWGQGTLVTVSS
VL: DIQMTQSPSSLSASVGDRVTITCKASQNVGTAVAWYQQKPGKSPKLLIYSASRRFSGVPSRFSGSGSGTDFTLTISSLQPEDFATYYCQQFSTYPYTFGQGTKVEIK
On to B14, for which the Kd is 54 nM.

B15: hu125B11 HC2 + hu113F5-F7 LC2 (antibody, V domains shown)
VH: EVQLVESGGGLVQPGGSLRLSCAASRFIFSNYWMNWVRQAPGKGLEWVAQIRLKSDNYATHYAESVKGRFTISRDNSKNTVYLQMNSLRAEDTAVYYCTGGTTYWGQGTLVTVSS
VL: DIQMTQSPSSLSASVGDRVTITCKASQNVGTAVAWYQQKPGKAPKLLIYSASRRFSGVPSRFSGSGSGTDFTLTISSLQPEDFATYFCQQFSTYPYTFGQGTKVEIK
As to B15, the equilibrium dissociation constant (Kd) was determined as 68 nM.

B16: hu125B11 HC2 + hu113F5-F7 LC1 (antibody, V domains shown)
VH: EVQLVESGGGLVQPGGSLRLSCAASRFIFSNYWMNWVRQAPGKGLEWVAQIRLKSDNYATHYAESVKGRFTISRDNSKNTVYLQMNSLRAEDTAVYYCTGGTTYWGQGTLVTVSS
VL: DIQMTQSPSSLSASVGDRVTITCKASQNVGTAVAWYQQKPGKSPKLLIYSASRRFSGVPSRFSGSGSGTDFTLTISSLQPEDFATYFCQQFSTYPYTFGQGTKVEIK
In the case of B16, the Kd amounted to 61 nM.

B17: hu125B11 HC1 + hu113F5-F7 LC1 (antibody, V domains shown)
VH: EVQLVESGGGLVQPGGSLRLSCAASRFIFSNYWMNWVRQAPGKGLEWVAQIRLKSDNYATHYAESVKGRFTISRDDSKNTVYLQMNSLRAEDTAVYYCTGGTTYWGQGTLVTVSS
VL: DIQMTQSPSSLSASVGDRVTITCKASQNVGTAVAWYQQKPGKSPKLLIYSASRRFSGVPSRFSGSGSGTDFTLTISSLQPEDFATYFCQQFSTYPYTFGQGTKVEIK
For B17, the dissociation constant (Kd) came to 57 nM.

B18: hu125B11 HC3 + 125B11 LC3 (antibody, V domains shown)
VH: EVQLVESGGGLVQPGGSLRLSCAASRFIFSNYWMNWVRQAPGKGLEWVAQIRLKSDNYATHYAESVKGRFTISRDDSKNTLYLQMNSLRAEDTAVYYCTGGTTYWGQGTLVTVSS
VL: DIQMTQSPSSLSASVGDRVTITCKASQNVGTAVAWYQQKPGKSPKLLIYSASIRYTGVPSRFSGSGSGTDFTLTISSLQPEDFATYYCQQFRTYPYTFGQGTKVEIK
As to B18, the Kd was 20 nM.

B19: hu125B11 HC2 + 125B11 LC1 (antibody, V domains shown)
VH: EVQLVESGGGLVQPGGSLRLSCAASRFIFSNYWMNWVRQAPGKGLEWVAQIRLKSDNYATHYAESVKGRFTISRDNSKNTVYLQMNSLRAEDTAVYYCTGGTTYWGQGTLVTVSS
VL: DIQMTQSPSSLSASVGDRVTITCKASQNVGTAVAWYQQKPGKSPKLLIYSASIRYTGVPSRFSGSGSGTDFTLTISSLQPEDFATYFCQQFRTYPYTFGQGTKVEIK
With B19, the equilibrium dissociation constant (Kd) turned out to be 18 nM.

B20: hu125B11 HC2 + 125B11 LC3 (antibody, V domains shown)
VH: EVQLVESGGGLVQPGGSLRLSCAASRFIFSNYWMNWVRQAPGKGLEWVAQIRLKSDNYATHYAESVKGRFTISRDNSKNTVYLQMNSLRAEDTAVYYCTGGTTYWGQGTLVTVSS
VL: DIQMTQSPSSLSASVGDRVTITCKASQNVGTAVAWYQQKPGKSPKLLIYSASIRYTGVPSRFSGSGSGTDFTLTISSLQPEDFATYYCQQFRTYPYTFGQGTKVEIK
Consider B20, for which the Kd came out at 23 nM.

For the origin of these results see patent US20190367592A1 (AC IMMUNE, published 2019).
